# Measurements from the supplement of paper PMC9112550, “Optimization of the antimicrobial peptide Bac7 by deep mutational scanning” (BMC Biology, 2022).
# Test system: Escherichia coli TOP10
# Assay: shrunken log2 fold change of peptide-encoding DNA abundance (4.5 h post-induction vs induction); higher = less antimicrobial activity (less host growth inhibition)
# Conditions: time post-induction: 4.5 h; library: site-saturation at positions 5, 18, 19, 20
# 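Also: peptides expressed intracellularly from a pBAD plasmid library in pooled LB shake-flask culture, induced with 0.3% L-arabinose, DNA abundance read by NGS, three biological replicates, DESeq2 with apeglm shrinkage.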
row,Sequence,shrunken log2 fold change
1,RRIRFRPPRLPRPRPRPCMSPRP,-0.0366
2,RRIRHRPPRLPRPRPRPFENPRP,-0.0293
3,RRIRKRPPRLPRPRPRPIGEPRP,-0.0126
4,RRIRCRPPRLPRPRPRPAWFPRP,0.194
5,RRIRWRPPRLPRPRPRPHPKPRP,0.408
6,RRIRWRPPRLPRPRPRPPENPRP,0.0933
7,RRIRFRPPRLPRPRPRPTQGPRP,0.215
8,RRIRPRPPRLPRPRPRPTCMPRP,0.219
9,RRIRYRPPRLPRPRPRPVVAPRP,-0.32
10,RRIRARPPRLPRPRPRPCDIPRP,-0.2
11,RRIRIRPPRLPRPRPRPWTRPRP,-0.187
12,RRIRARPPRLPRPRPRPDRDPRP,-0.0499
13,RRIRSRPPRLPRPRPRPTWTPRP,0.764
14,RRIRIRPPRLPRPRPRPYMHPRP,-1.32
15,RRIRQRPPRLPRPRPRPSWQPRP,-0.0449
16,RRIRIRPPRLPRPRPRPCEIPRP,-0.0178
17,RRIRARPPRLPRPRPRPSVCPRP,0.348
18,RRIRLRPPRLPRPRPRPQWWPRP,0.491
19,RRIRTRPPRLPRPRPRPDIMPRP,-0.624
20,RRIRKRPPRLPRPRPRPWDHPRP,-0.0434
21,RRIRARPPRLPRPRPRPPQKPRP,1.29
22,RRIRHRPPRLPRPRPRPNWSPRP,-0.0165
23,RRIRTRPPRLPRPRPRPNFVPRP,0.0615
24,RRIRCRPPRLPRPRPRPYVRPRP,-0.0787
25,RRIRARPPRLPRPRPRPPHEPRP,1.29

row,Sequence,shrunken log2 fold change
1,RRIRLRPPRLPRPRPRPYYFPRP,-0.767
2,RRIRHRPPRLPRPRPRPVLDPRP,-0.116
3,RRIRNRPPRLPRPRPRPPGLPRP,0.46
4,RRIRGRPPRLPRPRPRPCEVPRP,0.0371
5,RRIRVRPPRLPRPRPRPPHQPRP,0.0363
6,RRIRRRPPRLPRPRPRPKKPPRP,0.974
7,RRIRHRPPRLPRPRPRPKNHPRP,-0.566
8,RRIRPRPPRLPRPRPRPMPSPRP,-0.0976
9,RRIRVRPPRLPRPRPRPQNTPRP,-0.524
10,RRIRVRPPRLPRPRPRPGHAPRP,0.245
11,RRIRIRPPRLPRPRPRPQPSPRP,-0.214
12,RRIRWRPPRLPRPRPRPWNKPRP,0.087
13,RRIRNRPPRLPRPRPRPRTGPRP,-0.0238
14,RRIRIRPPRLPRPRPRPMMYPRP,-0.13
15,RRIRHRPPRLPRPRPRPEDDPRP,0.141
16,RRIRSRPPRLPRPRPRPKVNPRP,-0.333
17,RRIRERPPRLPRPRPRPIGKPRP,0.133
18,RRIRARPPRLPRPRPRPSIAPRP,0.186
19,RRIRLRPPRLPRPRPRPHVNPRP,-0.105
20,RRIRDRPPRLPRPRPRPFWQPRP,0.0546
21,RRIRGRPPRLPRPRPRPDKAPRP,-0.00124
22,RRIRLRPPRLPRPRPRPQHKPRP,-0.0846
23,RRIRERPPRLPRPRPRPQVEPRP,0.0218
24,RRIRYRPPRLPRPRPRPDDFPRP,-0.0153
25,RRIRVRPPRLPRPRPRPATIPRP,-0.101

row,Sequence,shrunken log2 fold change
1,RRIRQRPPRLPRPRPRPYYHPRP,-0.413
2,RRIRQRPPRLPRPRPRPWLAPRP,0.136
3,RRIRKRPPRLPRPRPRPLAFPRP,0.278
4,RRIRFRPPRLPRPRPRPASGPRP,0.206
5,RRIRPRPPRLPRPRPRPGVKPRP,-0.0608
6,RRIRNRPPRLPRPRPRPTEMPRP,-0.283
7,RRIRLRPPRLPRPRPRPKSHPRP,-0.261
8,RRIRHRPPRLPRPRPRPQISPRP,-0.0457
9,RRIRGRPPRLPRPRPRPHHIPRP,-0.525
10,RRIRQRPPRLPRPRPRPYLMPRP,-1.39
11,RRIRTRPPRLPRPRPRPGWMPRP,-0.182
12,RRIRCRPPRLPRPRPRPQSAPRP,-0.0724
13,RRIRGRPPRLPRPRPRPAHVPRP,0.586
14,RRIRYRPPRLPRPRPRPSCMPRP,-0.947
15,RRIRFRPPRLPRPRPRPLRQPRP,0.0138
16,RRIRMRPPRLPRPRPRPFYHPRP,-0.537
17,RRIRRRPPRLPRPRPRPGDGPRP,0.467
18,RRIRMRPPRLPRPRPRPHWFPRP,0.0685
19,RRIRCRPPRLPRPRPRPFGVPRP,-0.0152
20,RRIRLRPPRLPRPRPRPFCFPRP,-0.213
21,RRIRYRPPRLPRPRPRPGTAPRP,-0.39
22,RRIRVRPPRLPRPRPRPINTPRP,-1.07
23,RRIRSRPPRLPRPRPRPNWLPRP,0.18
24,RRIRYRPPRLPRPRPRPDMTPRP,-0.149
25,RRIRVRPPRLPRPRPRPGCYPRP,-0.112

row,Sequence,shrunken log2 fold change
1,RRIRARPPRLPRPRPRPAQMPRP,0.743
2,RRIRHRPPRLPRPRPRPKRLPRP,0.0708
3,RRIRVRPPRLPRPRPRPSSPPRP,-0.269
4,RRIRYRPPRLPRPRPRPTPGPRP,-0.0705
5,RRIRNRPPRLPRPRPRPSCFPRP,-0.398
6,RRIRHRPPRLPRPRPRPKTTPRP,-0.052
7,RRIRLRPPRLPRPRPRPGARPRP,0.369
8,RRIRKRPPRLPRPRPRPITSPRP,0.22
9,RRIRMRPPRLPRPRPRPFLRPRP,-0.22
10,RRIRYRPPRLPRPRPRPPMLPRP,-0.492
11,RRIRGRPPRLPRPRPRPWHGPRP,-0.163
12,RRIRVRPPRLPRPRPRPMFKPRP,-0.24
13,RRIRTRPPRLPRPRPRPFSWPRP,-0.294
14,RRIRCRPPRLPRPRPRPMPNPRP,-0.368
15,RRIRQRPPRLPRPRPRPQRLPRP,-0.0136
16,RRIRYRPPRLPRPRPRPLLAPRP,-0.197
17,RRIRERPPRLPRPRPRPYTAPRP,-0.662
18,RRIRDRPPRLPRPRPRPCFHPRP,-0.336
19,RRIRTRPPRLPRPRPRPIMEPRP,-0.409
20,RRIRVRPPRLPRPRPRPPYWPRP,0.121
21,RRIRRRPPRLPRPRPRPQRLPRP,0.124
22,RRIRGRPPRLPRPRPRPIAEPRP,3.26
23,RRIRARPPRLPRPRPRPCGDPRP,-0.239
24,RRIRERPPRLPRPRPRPAHEPRP,0.0932
25,RRIRQRPPRLPRPRPRPVVKPRP,-0.031

row,Sequence,shrunken log2 fold change
1,RRIRRRPPRLPRPRPRPLPRPRP,0.748
2,RRIRNRPPRLPRPRPRPYNQPRP,-0.597
3,RRIRWRPPRLPRPRPRPSDQPRP,0.138
4,RRIRKRPPRLPRPRPRPTHTPRP,0.285
5,RRIRTRPPRLPRPRPRPMDYPRP,-0.00965
6,RRIRKRPPRLPRPRPRPKHRPRP,0.237
7,RRIRNRPPRLPRPRPRPFLPPRP,-0.354
8,RRIRCRPPRLPRPRPRPWWYPRP,-0.136
9,RRIRFRPPRLPRPRPRPFCCPRP,-0.225
10,RRIRTRPPRLPRPRPRPVAEPRP,0.191
11,RRIRYRPPRLPRPRPRPIYFPRP,0.548
12,RRIRKRPPRLPRPRPRPGNYPRP,-0.113
13,RRIRYRPPRLPRPRPRPEVIPRP,-0.01
14,RRIRDRPPRLPRPRPRPPRVPRP,0.727
15,RRIRVRPPRLPRPRPRPQILPRP,-0.451
16,RRIRKRPPRLPRPRPRPYHSPRP,2.07
17,RRIRCRPPRLPRPRPRPLQLPRP,-0.546
18,RRIRHRPPRLPRPRPRPFYSPRP,-0.00674
19,RRIRSRPPRLPRPRPRPYEQPRP,-0.0601
20,RRIRLRPPRLPRPRPRPYCKPRP,-0.736
21,RRIRQRPPRLPRPRPRPEHCPRP,-0.199
22,RRIRVRPPRLPRPRPRPEVAPRP,1.82
23,RRIRYRPPRLPRPRPRPCGGPRP,0.00427
24,RRIRHRPPRLPRPRPRPRDTPRP,0.123
25,RRIRLRPPRLPRPRPRPGWMPRP,0.0923

row,Sequence,shrunken log2 fold change
1,RRIRDRPPRLPRPRPRPYIQPRP,-0.161
2,RRIRTRPPRLPRPRPRPGFNPRP,-0.234
3,RRIRTRPPRLPRPRPRPFRMPRP,0.0244
4,RRIRWRPPRLPRPRPRPNREPRP,-0.0677
5,RRIRHRPPRLPRPRPRPVFLPRP,-0.582
6,RRIRCRPPRLPRPRPRPPILPRP,-0.501
7,RRIRIRPPRLPRPRPRPPFDPRP,-0.0876
8,RRIRYRPPRLPRPRPRPSFLPRP,-0.994
9,RRIRCRPPRLPRPRPRPGNRPRP,0.0246
10,RRIRKRPPRLPRPRPRPADRPRP,0.102
11,RRIRMRPPRLPRPRPRPISDPRP,0.0757
12,RRIRCRPPRLPRPRPRPIMFPRP,-0.388
13,RRIRVRPPRLPRPRPRPERRPRP,0.13
14,RRIRGRPPRLPRPRPRPSTRPRP,0.114
15,RRIRPRPPRLPRPRPRPQKDPRP,-0.132
16,RRIRIRPPRLPRPRPRPKLLPRP,0.0419
17,RRIRARPPRLPRPRPRPADWPRP,0.984
18,RRIRGRPPRLPRPRPRPTGPPRP,0.692
19,RRIRCRPPRLPRPRPRPRHNPRP,-0.374
20,RRIRIRPPRLPRPRPRPDRKPRP,-0.0167
21,RRIRDRPPRLPRPRPRPANHPRP,-0.438
22,RRIRKRPPRLPRPRPRPIAVPRP,0.131
23,RRIRFRPPRLPRPRPRPPTWPRP,0.239
24,RRIRFRPPRLPRPRPRPRFEPRP,0.162
25,RRIRCRPPRLPRPRPRPRHMPRP,-0.185
